Here are results for 1 substance from patent publication US20080248043A1.

Test [1] addresses antigen of Table 4 (native or denatured; not named). Description: native conditions; 10 µg/ml.
The target is the same in test [2]. Briefly: denatured conditions; 10 µg/ml.
Test [3] shares this target. Briefly: native conditions; dilution 1:5.

Regarding Cont, the OD (read-out not given) amounted to 0.738 in test [1], 0.146 in test [2] and 0.052 in test [3].
